Source: paper PMC8449271 (The Journal of Biological Chemistry, 2021)

Biological target: the molecule itself
Assay: mass photometry

Row | Protein | stoichiometry N
1 | Cryptococcus neoformans bifunctional GARs/AIRs (phosphoribosyl-glycinamide synthetase / phosphoribosyl-aminoimidazole synthetase), recombinant His-tagged (enzyme, UniProt J9VYP5 1-802, looked up) MPEITAFPQPKSDLSILLLGAGGREHALAFKLAQSSRVARIVVCPGNGGTALMGGKVSNLALPWGAPPAFRSIVEWAQKENIDLVVPGPEQPLVDGVEGAFKKVGIPVFGPSPAAAMLEGSKSLSKEFMARHNIPTAAFRSFTSTQYEDAVAYIKSKPFTSGRSVIKASGLAAGKGVLIPETDEEAFAALKSVMVDKEFGDAGDEVVVEEYLSGPEISVLAFSDGYTIVPMPAAQDHKRIGEGDTGLNTGGMGAYAPAPIATKEIMERCVKDVLEPTIKGMREDGYPFVGMLFTGFMITADGPRVLEYNVRFGDPETQALMLLLDEQTDLAEVLLACVERRLDSIKLGYKQGYAVSVVLASEGYPGSYPKGLPMTLNPTPEGVEVFHAGTKRSDNVTVTDGGRVLAVCASAPTLRAAVDLAYSGISQISFQGQTFRRDIAYRALSSEPPAEPKGLTYAAAGVSVDAGNDLVEAIKPVVKATRRPGADSDIGGFGGAFDLAKAGYKDPILVSGTDGVGTKLRVALDHGKHNTVGIDLVAMSVNDLIVQGAEPLYFLDYYACSKLDVPVAADVITGIAEGCLQAGCALIGGETAEMPGMYHGDDYDLAGFAVGVVERAQILPTPDIASGDVLLALSSSGPHSNGFSLIRKIVSLSNLSLHDTAPWDKNTSVGDALLTPTKVYIKPLLPGIKSGLYKGMSHITGGGFTENIPRIFSSASNLGVKLDLTSYSLPAIWKWLMRAGNVEAKEMVRTFNCGVGMIIIVAKDKADAALSSLKENGEEAWVIGEVQEKKGVEYVGLDKFGL | 2
2 | Cryptococcus neoformans GARs single enzymatic unit (phosphoribosyl-glycinamide synthetase), recombinant His-tagged (domain or fragment) MPEITAFPQPKSDLSILLLGAGGREHALAFKLAQSSRVARIVVCPGNGGTALMGGKVSNLALPWGAPPAFRSIVEWAQKENIDLVVPGPEQPLVDGVEGAFKKVGIPVFGPSPAAAMLEGSKSLSKEFMARHNIPTAAFRSFTSTQYEDAVAYIKSKPFTSGRSVIKASGLAAGKGVLIPETDEEAFAALKSVMVDKEFGDAGDEVVVEEYLSGPEISVLAFSDGYTIVPMPAAQDHKRIGEGDTGLNTGGMGAYAPAPIATKEIMERCVKDVLEPTIKGMREDGYPFVGMLFTGFMITADGPRVLEYNVRFGDPETQALMLLLDEQTDLAEVLLACVERRLDSIKLGYKQGYAVSVVLASEGYPGSYPKGLPMTLNPTPEGVEVFHAGTKRSDNVTVTDGGRVLAVCASAPTLRAAVDLAYSGISQISFQGQTFRRDIAYRALSSEPPAEP | 2
3 | Cryptococcus neoformans AIRs single enzymatic unit (phosphoribosyl-aminoimidazole synthetase), recombinant His-tagged (domain or fragment) GFGGAFDLAKAGYKDPILVSGTDGVGTKLRVALDHGKHNTVGIDLVAMSVNDLIVQGAEPLYFLDYYACSKLDVPVAADVITGIAEGCLQAGCALIGGETAEMPGMYHGDDYDLAGFAVGVVERAQILPTPDIASGDVLLALSSSGPHSNGFSLIRKIVSLSNLSLHDTAPWDKNTSVGDALLTPTKVYIKPLLPGIKSGLYKGMSHITGGGFTENIPRIFSSASNLGVKLDLTSYSLPAIWKWLMRAGNVEAKEMVRTFNCGVGMIIIVAKDKADAALSSLKENGEEAWVIGEVQEKKGVEYVGLDKFGL | 2
